Data from the supplement of paper PMC6757056.
± gives the standard deviation of the averaged measurements.

B1: library; a variant is named by its letters at N, in order (parent)
chain: GCUGUCACCGAGAAACUGUGAAGUAUAUCUUAAACCUGGGCACUUAAAAGAUAUAUGGAGUUAGUAGUGCAACCUGCUCGGUCUGAUGAGUCCNNNNNNGGACGAAACAGC

What was measured:
cyclic di-GMP [1] = variants of: B1; test: FACS-Seq fitted mean relative fluorescence mCherry/BFP without ligand (log10 relative fluorescence); HEK293T; ligand: cyclic di-GMP (c-di-GMP-II aptamer); higher = higher reporter protein expression; conditions: ligand present: no
Summary of the method: (§1)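 The ribozyme switch sat in an mCherry reporter, delivered by lentivirus into HEK293T libraries along with an EF1α-BFP marker. Enriched cells were incubated 48 h with or without ligand, sorted into 6 bins by mCherry/BFP, and bin genomic DNA was PCR-amplified, barcoded and MiSeq-sequenced. Fluorescence equals the fitted normal mean of the bin counts after normalization. Those log10(mCherry/BFP) means were scaled to five spiked-in control ribozymes.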

cyclic di-GMP [2] = variants of: B1; test: normalized RNA/DNA level without ligand (relative to sTRSVctl = 100) (log10 (% of sTRSVctl)); HEK293T; ligand: cyclic di-GMP (c-di-GMP-II aptamer); higher = less ribozyme self-cleavage, higher mRNA level; conditions: reporter: mCherry (pCS4076), ligand present: no
Summary of the method: (§2)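 Ribozyme switch library plasmids linked to reporters were introduced into HEK293T cells at 4 µg per 6-well well, with ligand, if any, added 1 h before. Total RNA was extracted with EDTA 72 h later, reverse-transcribed, amplified, barcoded and sequenced. RNA level was computed from RNA over DNA reads relative to a spiked-in non-cleaving sequence or the top sequences, then scaled and log-transformed. The top set was 25 sequences, values were ×100 and log10, and the cutoff was ≥100 DNA reads.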

cyclic di-GMP [3] = variants of: B1; test: FACS-Seq fitted mean relative fluorescence mCherry/BFP with ligand (log10 relative fluorescence); HEK293T; ligand: cyclic di-GMP (c-di-GMP-II aptamer); ligand concentration (+) FACS-Seq: 1 mM; higher = higher reporter protein expression; conditions: ligand present: yes
Summary of the method: as §1

cyclic di-GMP [4] = variants of: B1; test: normalized RNA/DNA level with ligand (relative to sTRSVctl = 100) (log10 (% of sTRSVctl)); HEK293T; ligand: cyclic di-GMP (c-di-GMP-II aptamer); ligand concentration (+) RNA-Seq: 1 mM; higher = less ribozyme self-cleavage, higher mRNA level; conditions: reporter: mCherry (pCS4076), ligand present: yes
Summary of the method: as §2

| Variant | FACS-Seq fitted mean (log10) (cyclic di-GMP [1]) | normalized RNA/DNA level without ligand (log10) (cyclic di-GMP [2]) | FACS-Seq fitted mean (log10) (cyclic di-GMP [3]) | normalized RNA/DNA level with ligand (log10) (cyclic di-GMP [4]) |
| --- | --- | --- | --- | --- |
| GCUGUCACCGAGAAACUGUGAAGUAUAUCUUAAACCUGGGCACUUAAAAGAUAUAUGGAGUUAGUAGUGCAACCUGCUCGGUCUGAUGAGUCCCUAUCUGGACGAAACAGC [CUAUCU] | -0.234 ± 0.066 | 1.62 ± 0.021 | -0.142 ± 0.059 | 1.76 ± 0.11 |
| GCUGUCACCGAGAAACUGUGAAGUAUAUCUUAAACCUGGGCACUUAAAAGAUAUAUGGAGUUAGUAGUGCAACCUGCUCGGUCUGAUGAGUCCGCUAUAGGACGAAACAGC [GCUAUA] | -0.262 ± 0.11 | 1.55 ± 0.058 | -0.134 ± 0.099 | 1.73 ± 0.11 |
| GCUGUCACCGAGAAACUGUGAAGUAUAUCUUAAACCUGGGCACUUAAAAGAUAUAUGGAGUUAGUAGUGCAACCUGCUCGGUCUGAUGAGUCCGUCGGAGGACGAAACAGC [GUCGGA] | -0.0744 ± 0.052 | 1.51 ± 0.073 | 0.242 ± 0.025 | 1.7 ± 0.071 |
| GCUGUCACCGAGAAACUGUGAAGUAUAUCUUAAACCUGGGCACUUAAAAGAUAUAUGGAGUUAGUAGUGCAACCUGCUCGGUCUGAUGAGUCCGCUUCAGGACGAAACAGC [GCUUCA] | -0.32 ± 0.093 | 1.668 ± 0.013 | 0.00326 ± 0.00018 | 1.81 ± 0.11 |
| GCUGUCACCGAGAAACUGUGAAGUAUAUCUUAAACCUGGGCACUUAAAAGAUAUAUGGAGUUAGUAGUGCAACCUGCUCGGUCUGAUGAGUCCUUAUGAGGACGAAACAGC [UUAUGA] | -0.781 ± 0.045 | 1.63 ± 0.025 | -0.563 ± 0.026 | 1.81 ± 0.12 |
| GCUGUCACCGAGAAACUGUGAAGUAUAUCUUAAACCUGGGCACUUAAAAGAUAUAUGGAGUUAGUAGUGCAACCUGCUCGGUCUGAUGAGUCCCGGCGCGGACGAAACAGC [CGGCGC] | -0.498 ± 0.2 | 1.8 ± 0.044 | -0.494 ± 0.095 | 1.94 ± 0.069 |
| GCUGUCACCGAGAAACUGUGAAGUAUAUCUUAAACCUGGGCACUUAAAAGAUAUAUGGAGUUAGUAGUGCAACCUGCUCGGUCUGAUGAGUCCCUCAUAGGACGAAACAGC [CUCAUA] | -0.575 ± 0.039 | 1.43 ± 0.079 | -0.298 ± 0.012 | 1.65 ± 0.14 |
| GCUGUCACCGAGAAACUGUGAAGUAUAUCUUAAACCUGGGCACUUAAAAGAUAUAUGGAGUUAGUAGUGCAACCUGCUCGGUCUGAUGAGUCCCAAAAUGGACGAAACAGC [CAAAAU] | -0.237 ± 0.17 | 1.45 ± 0.11 | 0.0784 ± 0.017 | 1.65 ± 0.085 |
| GCUGUCACCGAGAAACUGUGAAGUAUAUCUUAAACCUGGGCACUUAAAAGAUAUAUGGAGUUAGUAGUGCAACCUGCUCGGUCUGAUGAGUCCCCAAUGGGACGAAACAGC [CCAAUG] | -0.6462 ± 0.0011 | 1.23 ± 0.16 | -0.334 ± 0.017 | 1.49 ± 0.018 |
| GCUGUCACCGAGAAACUGUGAAGUAUAUCUUAAACCUGGGCACUUAAAAGAUAUAUGGAGUUAGUAGUGCAACCUGCUCGGUCUGAUGAGUCCAAUUGGGGACGAAACAGC [AAUUGG] | 0.0192 ± 0.091 | 1.59 ± 0.068 | 0.141 ± 0.0084 | 1.74 ± 0.13 |
| GCUGUCACCGAGAAACUGUGAAGUAUAUCUUAAACCUGGGCACUUAAAAGAUAUAUGGAGUUAGUAGUGCAACCUGCUCGGUCUGAUGAGUCCCCAAGAGGACGAAACAGC [CCAAGA] | -0.572 ± 0.0069 | 1.47 ± 0.074 | -0.208 ± 0.06 | 1.69 ± 0.13 |
| GCUGUCACCGAGAAACUGUGAAGUAUAUCUUAAACCUGGGCACUUAAAAGAUAUAUGGAGUUAGUAGUGCAACCUGCUCGGUCUGAUGAGUCCUAUAUCGGACGAAACAGC [UAUAUC] | -0.579 ± 0.13 | 1.71 ± 0.018 | -0.583 ± 0.2 | 1.85 ± 0.12 |
| GCUGUCACCGAGAAACUGUGAAGUAUAUCUUAAACCUGGGCACUUAAAAGAUAUAUGGAGUUAGUAGUGCAACCUGCUCGGUCUGAUGAGUCCACAUACGGACGAAACAGC [ACAUAC] | -0.256 ± 0.19 | 1.57 ± 0.056 | -0.161 ± 0.28 | 1.76 ± 0.097 |
